Data reported in paper PMC10148081.

Target: Leishmania tarentolae propionyl-CoA carboxylase (LtPCC) β-subunit (Leishmania tarentolae (endogenous in L. tarentolae cells))
Test: cryo-EM structure; endogenous LtPCC complexes from streptavidin pull-down, in 20 mM Tris-HCl pH 7.5, 60 mM KCl, 5 mM MgCl2, 1 mM DTT, 5 mM OG; α6β6 map with D3 symmetry at 3.2 Å, α5β6 (8.6 Å) and α4β6 (10.3 Å) maps with C1 symmetry

stoichiometry N: 6
Substance: Leishmania tarentolae propionyl-CoA carboxylase (LtPCC) β-subunit (natural protein)
